Like-named read-outs stand apart in the source and are kept apart here.
Tests used:
[1] = molecular target: T1, human macrophage migration inhibitory factor (MIF) (human, UniProt P14174 2-115); experiment: cell-based or functional assay
[2] = molecular target: T1, human macrophage migration inhibitory …; experiment: cell-based or functional assay; remark: listed apart in the source
[3] = molecular target: T1, human macrophage migration inhibitory …; experiment: column 'Binds Human MIF'; method not stated
[4] = molecular target: T1, human macrophage migration inhibitory …; experiment: cell-based or functional assay; remark: listed apart in the source
[5] = molecular target: T1, human macrophage migration inhibitory …; experiment: column 'Binds Human MIF'; method not stated; remark: listed apart in the source
[6] = molecular target: T1, human macrophage migration inhibitory …; experiment: row 'human MIF Kd < 50 nm'; method not stated

T1 sequence (P14174 2-115 limits assumed): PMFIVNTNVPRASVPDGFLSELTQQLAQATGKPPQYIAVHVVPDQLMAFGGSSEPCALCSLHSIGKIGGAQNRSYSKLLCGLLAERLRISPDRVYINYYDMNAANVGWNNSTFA

Row | % MIF PPt Activity [1] | MIF Stimulated SRE Transcription (% MIF Activity), 10 µg mab/ml [1] | % MIF PPT Activity [2] | MIF Stimulated SRE Transcription (% MIF Activity), 10 µg mab/ml [2] | Kd [3] | % MIF PPT Activity [4] | Kd [5] | Kd [6] | Binder
1 | 82% | 36% | 82% | 36% |  | 82% |  |  | anti-MIF monoclonal antibody 6B5-5 (antibody, V domains shown) VH: DVQLQESGPGLVKPSQSLSLTCTVTGSSITSDYAWHWIRQFPGNKLEWMGYISFSGSTGYNPSLKSRFSITRDTSKNQFFLQLNSVTTEDTATYYCAREAYGYDVGYFDYWGQGTTLTVSS VL: QIVLTQSPAIMSAFPGEKVTITCSASSSVSYMHWFQQKPGTSPKLWIYGTSNLASGVPVRFSGSGSGTSYSLTISRMEAEDAATYYCQQRSSYPWTFGGGTKLEIKR
2 | 67% | 5% | 67% | 5% |  | 67% |  |  | anti-MIF monoclonal antibody 33G7-9 (antibody, V domains shown) VH: DVQLQESGPDLVKPSQSLSLTCSVTGYSITSGYYWNWIRQFPGNKLEWVGYLSYDGSKSHNPSLRNRISITRDPSKNQFFLKLNSVTTEDTATYYCARGGKIFYGSSYDPFAYWGQGTLVTVSS VL: DIQMTQSPASLSASVGETVTITCRASENIFNYLSWYQQKQGKSPQLLVYNVKTLTDGVPSRFSGSGSGTQFSLKINSLQPEDFGSYYCQHHYDTPYTFGRGTKLEIKR
3 | 136% |  | 136% |  | < 100 pM | 136% | < 100 pM | < 100 pM | anti-MIF monoclonal antibody 10B11-3 (antibody, V domains shown, Mouse hybridoma antibody from a MIF knockout mouse, purified from ascites; also called Mab 10B11-3; 1OB11-3) VH: EVQLQQSGPELVKPGASVRISCKTSGYTITEYTMHWMKQSHEKSLEWIGGITPNTGVLSDNQKFRGKATLTVDKSSNTAYMELRSLTSADSAVYYCARRGNNYYGSSPWFAYWGQGTLVTVSA VL: DIQMTQSPASLSVSVGETVTITCRASENIYSNLAWYQQKQGKSPQLLVYAATNLADGVPSRFSGSGSGTQYSLNIYSLQPEDFGSYYCQHFWGTPYTFGGGTKLEIKR

More lines, now with the values behind:

Row | Binder | % MIF PPt Activity [1] | MIF Stimulated SRE Transcription (% MIF Activity), 10 µg mab/ml [1] | % MIF PPT Activity [2] | MIF Stimulated SRE Transcription (% MIF Activity), 10 µg mab/ml [2] | Kd [3] | % MIF PPT Activity [4] | Kd [5] | Kd [6]
4 | anti-MIF monoclonal antibody 22F11-6 (antibody, V domains shown, Mouse hybridoma antibody from a MIF knockout mouse, purified from ascites; also called Mab 22F11-6) VH: EVKLEESGGGLVQPGGSMKLSCAASGFTFGDAWMYWVRQSPEKGLEWVAEIRSKAHNHATYYAESVKGRFTISRDDSKSSVYLQMSSLRAEDTGIYYCTSHHYGSSWYFDVWGAGTTVTVSS VL: DIQMTQSPASLSASVGETVTITCRASENIYSYLTWFQQKQGKSPQLLVYDAKTLAEGVPSSFSGSGSGTQFSLKIISLQPEHFGSYYCQHHYGRPYTFGGGTKLEIKR | 65% | 42% | 65% | 42% | < 100 pM | 65% | < 100 pM | < 100 pM
5 | anti-MIF monoclonal antibody 29B12-1 (antibody, V domains shown) VH: EVKLVESGGGSVQPGGSLKLSCATSGFIFSDYYMYWVRQTPEKRLEWVAYISIGSGNTYYPDTVKGRFTISRDIAKNTLYLQMSRLKSEDTAMYYCVRGRLRFLFDYAMDYWGQGTSVTVSS VL: not shown | 146% | 25% | 146% | 25% |  | 146% |  | 
6 | anti-MIF monoclonal antibody 19B11-7 (antibody, V domains shown, Mouse hybridoma antibody from a MIF knockout mouse, purified from ascites) VH: QIQLVQSGPELKKPGETVKISCKASGYSFRNYGMNWVSQPPGKGLEWMGWINTYTGEPTYADDFKGRFAFSLDTSASTAYLTINNLKNEDTATYFCARSNYGNYFDYWGQGTTLTVSA VL: NIVLTQSPASLALSLGQRATISCRTSESVDSYASSFMHWYQQKPGQSPKLLIYLASNLESGVPARFSGSGSRTDFTLTIDPVEADDAATYYCQQSNEDPRTFGGGTQLEIKR | 0% | 29% | 0% | 29% | < 100 pM | 0% | < 100 pM | 

Reference: US7294753 (Biogen, dated 2007)
